Binding result and Kd data for 1 molecule are collected here from publication PMC4288179, “Synergic interplay of the La motif, RRM1 and the interdomain linker of LARP6 in the recognition of collagen mRNA expands the RNA binding repertoire of the La module”.

In general, Kd refers to the concentration at which binding is half-saturated.

Where a chain is given by its changes, count along the chain named.

Assay in all cases: ITC; ITC: 20 mM Tris pH 7.25, 100 mM KCl, 5 mM MgCl2, 1 mM DTT, 298 K; protein titrated into RNA
(ITC needs no label: the signal is the heat of the interaction.)

For one series, the target named is T1, HsLARP6 RRM1 (180-295) (Homo sapiens, UniProt Q9BRS8 180-295).
T1 sequence: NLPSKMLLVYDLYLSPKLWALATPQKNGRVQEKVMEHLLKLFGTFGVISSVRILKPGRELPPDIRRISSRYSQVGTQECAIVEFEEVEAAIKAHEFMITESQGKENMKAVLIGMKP
The settings on record: protein: recombinant; tags: N-terminal His6 (TEV-cleavable); stem-loop with internal bulge.

The target in a further series is T2, HsLARP6(70-300) R237A (Homo sapiens, UniProt Q9BRS8 70-300, R237A).
T2 sequence: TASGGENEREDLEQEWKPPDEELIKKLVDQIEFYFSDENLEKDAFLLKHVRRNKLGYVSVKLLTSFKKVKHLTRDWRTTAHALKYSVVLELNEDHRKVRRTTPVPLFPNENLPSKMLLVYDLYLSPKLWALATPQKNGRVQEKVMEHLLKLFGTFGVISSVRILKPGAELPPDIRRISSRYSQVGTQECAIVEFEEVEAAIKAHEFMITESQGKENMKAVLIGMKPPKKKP
The settings on record: protein: recombinant; tags: N-terminal His6 (TEV-cleavable); stem-loop with internal bulge.

Another series concerns the target T3, HsLARP6(70-300) K196A (Homo sapiens, UniProt Q9BRS8 70-300, K196A).
T3 sequence: T2 sequence with K127A, A168R
The settings on record: protein: recombinant; tags: N-terminal His6 (TEV-cleavable); stem-loop with internal bulge.

Series [1] has as its target T4, HsLARP6 La module (70-300) (Homo sapiens, UniProt Q9BRS8 70-300).
T4 sequence: T2 sequence with A168R
The settings on record: protein: recombinant; tags: N-terminal His6, TEV-cleaved for initial ITC; stem-loop with internal bulge.

For the next series, the target named is T5, HsLARP6(70-300) Q99A (Homo sapiens, UniProt Q9BRS8 70-300, Q99A).
T5 sequence: T2 sequence with Q30A, A168R
The settings on record: protein: recombinant; tags: N-terminal His6 (TEV-cleavable); stem-loop with internal bulge.

The target in a further series is T6, Loop1 chimera (Homo sapiens, UniProt Q9BRS8 70-189+P05455:116-122+209-300, internal_change).
T6 sequence: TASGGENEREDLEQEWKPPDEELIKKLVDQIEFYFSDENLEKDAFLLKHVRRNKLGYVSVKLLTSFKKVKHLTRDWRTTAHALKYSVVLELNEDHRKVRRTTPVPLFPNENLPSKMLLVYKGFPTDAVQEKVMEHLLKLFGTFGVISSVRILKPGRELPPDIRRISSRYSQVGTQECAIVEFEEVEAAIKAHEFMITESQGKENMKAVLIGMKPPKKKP
The settings on record: protein: recombinant; tags: N-terminal His6 (TEV-cleavable); stem-loop with internal bulge.

For the next series, the target named is T7, HsLARP6(70-300) F114A (Homo sapiens, UniProt Q9BRS8 70-300, F114A).
T7 sequence: T2 sequence with F45A, A168R
The settings on record: protein: recombinant; tags: N-terminal His6 (TEV-cleavable); stem-loop with internal bulge.

The target in the next series is T8, HsLARP6(70-300) N180R (Homo sapiens, UniProt Q9BRS8 70-300, N180R).
T8 sequence: T2 sequence with N111R, A168R
The settings on record: protein: recombinant; tags: N-terminal His6 (TEV-cleavable); stem-loop with internal bulge.

CCACAAAGAGUCUACAUGUCUAGGGUCUAGACAUGUUCAGCUUUGUGG (structured_RNA) [48 nt RNA (collagen alpha1(I) 5' UTR SL)]: the binding result with HsLARP6 RRM1 (180-295), with HsLARP6(70-300) Q99A and with HsLARP6(70-300) F114A was “no binding” each time. Moreover, the Kd worked out at 15 nM with HsLARP6(70-300) R237A; 48 nM with HsLARP6(70-300) K196A; 48 nM in series [1]; 18 nM in the series with Loop1 chimera; 32 nM with HsLARP6(70-300) N180R.
